Patent publication US20250353926A1

Target: PSMA expressed on target cells (PC3pip cells, high density; 22Rv1 cells, low density) (UniProt Q04609)
Assay: cell-based or functional assay

Sequence of PSMA expressed on target cells (PC3pip cells, high density; 22Rv1 cells, low density) (Q04609 whole entry): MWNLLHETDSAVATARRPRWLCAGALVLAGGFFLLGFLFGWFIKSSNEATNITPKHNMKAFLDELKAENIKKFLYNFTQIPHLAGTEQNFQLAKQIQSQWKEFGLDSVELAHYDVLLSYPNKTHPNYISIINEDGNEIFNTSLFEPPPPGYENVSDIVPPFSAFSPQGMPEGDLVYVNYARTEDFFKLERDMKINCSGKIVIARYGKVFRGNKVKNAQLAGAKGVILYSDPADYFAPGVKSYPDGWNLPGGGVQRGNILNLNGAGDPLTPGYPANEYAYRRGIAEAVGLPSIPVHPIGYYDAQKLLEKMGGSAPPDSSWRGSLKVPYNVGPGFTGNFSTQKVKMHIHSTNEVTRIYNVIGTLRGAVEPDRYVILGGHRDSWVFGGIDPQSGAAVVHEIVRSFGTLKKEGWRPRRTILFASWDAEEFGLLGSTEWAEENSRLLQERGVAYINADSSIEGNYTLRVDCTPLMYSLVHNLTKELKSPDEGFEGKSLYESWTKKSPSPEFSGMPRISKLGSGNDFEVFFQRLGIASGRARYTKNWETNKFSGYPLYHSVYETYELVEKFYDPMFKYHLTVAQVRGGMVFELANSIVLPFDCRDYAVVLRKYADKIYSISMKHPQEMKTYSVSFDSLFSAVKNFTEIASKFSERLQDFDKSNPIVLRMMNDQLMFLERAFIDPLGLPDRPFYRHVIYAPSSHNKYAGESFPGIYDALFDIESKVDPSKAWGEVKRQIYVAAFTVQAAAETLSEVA

Substance: monoclonal anti-PSMA antibody, J591
- EC50; ADCC luciferase reporter assay (Jurkat CD16a V158 reporter cells), PC3pip 24 h continuous: 0.16 nM
- EC50; ADCC reporter assay, 22Rv1 4 h washout, 24 h endpoint: > 500 nM
- EC50; ADCC reporter assay, PC3pip 4 h washout, 24 h endpoint: 0.044 nM
